{"source": "patent US11434267B2", "about": "“Peptides having reduced toxicity that stimulate cholesterol efflux” (The Regents of the University of California, priority 2013, dated 2022)", "key": {"ABCA1 [1]": {"molecular_target": "T1, ABCA1 (Mus musculus, UniProt P41233)", "T1 construct": "treated (18 h) with a cAMP analog to induce ABCA1 protein expression; endogenous in cells; host or cells: J774 macrophages", "T1 sequence (P41233 whole entry)": "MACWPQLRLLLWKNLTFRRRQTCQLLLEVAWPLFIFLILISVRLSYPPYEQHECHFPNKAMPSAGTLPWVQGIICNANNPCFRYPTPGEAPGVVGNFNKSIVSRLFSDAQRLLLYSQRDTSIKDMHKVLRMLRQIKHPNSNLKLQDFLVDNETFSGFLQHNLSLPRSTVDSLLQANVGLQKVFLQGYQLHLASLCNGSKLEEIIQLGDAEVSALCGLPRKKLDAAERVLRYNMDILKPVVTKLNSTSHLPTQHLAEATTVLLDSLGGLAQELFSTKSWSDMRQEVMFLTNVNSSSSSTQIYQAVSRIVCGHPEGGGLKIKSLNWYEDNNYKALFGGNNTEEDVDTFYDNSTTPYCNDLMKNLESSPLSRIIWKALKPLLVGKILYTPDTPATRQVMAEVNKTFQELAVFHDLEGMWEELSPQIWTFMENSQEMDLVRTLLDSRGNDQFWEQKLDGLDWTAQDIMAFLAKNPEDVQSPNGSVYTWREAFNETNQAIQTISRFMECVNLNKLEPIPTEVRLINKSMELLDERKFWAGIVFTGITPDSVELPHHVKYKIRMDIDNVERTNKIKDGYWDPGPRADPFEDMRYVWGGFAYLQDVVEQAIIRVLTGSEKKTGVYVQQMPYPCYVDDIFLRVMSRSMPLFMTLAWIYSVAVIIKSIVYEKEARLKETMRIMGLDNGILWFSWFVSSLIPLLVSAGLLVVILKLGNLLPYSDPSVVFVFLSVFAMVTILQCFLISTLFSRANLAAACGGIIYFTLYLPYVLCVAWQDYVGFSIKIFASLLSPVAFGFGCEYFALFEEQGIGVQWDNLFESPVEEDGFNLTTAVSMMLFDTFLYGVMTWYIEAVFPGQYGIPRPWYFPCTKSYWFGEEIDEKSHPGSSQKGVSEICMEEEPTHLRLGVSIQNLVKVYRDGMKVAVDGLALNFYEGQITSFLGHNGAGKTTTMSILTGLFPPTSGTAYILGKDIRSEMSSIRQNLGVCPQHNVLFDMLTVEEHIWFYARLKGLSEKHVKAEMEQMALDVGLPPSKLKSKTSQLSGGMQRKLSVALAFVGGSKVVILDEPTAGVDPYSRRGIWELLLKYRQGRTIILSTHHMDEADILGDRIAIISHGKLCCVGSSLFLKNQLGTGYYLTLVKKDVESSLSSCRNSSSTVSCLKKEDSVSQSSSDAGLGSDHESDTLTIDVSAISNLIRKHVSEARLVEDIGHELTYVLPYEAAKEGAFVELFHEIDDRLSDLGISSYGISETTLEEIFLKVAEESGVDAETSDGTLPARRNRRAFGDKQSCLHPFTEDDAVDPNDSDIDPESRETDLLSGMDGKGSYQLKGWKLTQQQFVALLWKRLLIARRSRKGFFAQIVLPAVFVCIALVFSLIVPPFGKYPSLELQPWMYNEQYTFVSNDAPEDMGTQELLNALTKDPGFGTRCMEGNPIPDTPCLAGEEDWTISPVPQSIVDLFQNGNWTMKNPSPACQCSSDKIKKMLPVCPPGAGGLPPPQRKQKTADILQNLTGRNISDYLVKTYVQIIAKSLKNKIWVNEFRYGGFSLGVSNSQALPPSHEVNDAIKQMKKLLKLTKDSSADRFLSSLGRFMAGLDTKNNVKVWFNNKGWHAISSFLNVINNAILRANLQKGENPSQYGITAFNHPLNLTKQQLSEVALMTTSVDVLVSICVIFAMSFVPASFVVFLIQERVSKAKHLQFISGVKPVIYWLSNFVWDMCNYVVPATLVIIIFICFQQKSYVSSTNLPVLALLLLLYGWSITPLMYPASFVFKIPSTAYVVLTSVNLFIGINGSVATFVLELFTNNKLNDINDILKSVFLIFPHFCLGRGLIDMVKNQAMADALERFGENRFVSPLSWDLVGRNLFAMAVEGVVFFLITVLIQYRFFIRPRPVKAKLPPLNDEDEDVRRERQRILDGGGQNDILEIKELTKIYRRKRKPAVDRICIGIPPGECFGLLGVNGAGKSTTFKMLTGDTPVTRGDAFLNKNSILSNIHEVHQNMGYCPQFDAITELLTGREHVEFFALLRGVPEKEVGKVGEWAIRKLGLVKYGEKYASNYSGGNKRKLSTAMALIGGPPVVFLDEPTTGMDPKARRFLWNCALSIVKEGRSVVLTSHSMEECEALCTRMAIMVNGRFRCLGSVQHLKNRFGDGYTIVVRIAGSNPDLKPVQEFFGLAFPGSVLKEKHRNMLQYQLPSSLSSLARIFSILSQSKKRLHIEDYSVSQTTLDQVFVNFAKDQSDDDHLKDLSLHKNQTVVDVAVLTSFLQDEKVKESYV", "test": "ABCA1-dependent cholesterol efflux from [3H]cholesterol-labeled J774 macrophages with and without cAMP", "format": "cell-based", "conditions": "cAMP treated J774, dose response, 4 h", "source_text": "Suitable cholesterol efflux assays are described in, e.g., Bielicki, J. K and Oda, M. N., Biochemistry, 41:2089-2096 (2002); Jia et al., Biochem. Biophys. Res. Common., 297:206-213 (2002). In some embodiments, a polypeptide known to mediate cholesterol efflux (e.g., helix 9/10 of Apo A-I) is used to screen for additional mediators of cholesterol efflux in a cell based assay. For example, cell lines in which cholesterol efflux can be enhanced using a cAMP analog that up-regulates ABCA1 protein expression (e.g., J774 macrophages) can conveniently be used to assess the ability of a polypeptide of the present invention to mediate cholesterol efflux. The cells are incubated with labeled cholesterol (e.g., [^3H]cholesterol) under conditions appropriate for cholesterol uptake by the cells. Thus, cAMP or cAMP analogs (e.g., CPT-cAMP) are incubated with the cells for a suitable time before the initiation of cellular cholesterol efflux, i.e., prior to contacting the cells with a test polypeptide. Measurement of labeled cholesterol appearing in the medium is used to determine the cholesterol efflux mediating activity of the test polypeptide.\nAliphatic analogs of ATI-5261 lacking phenylalanine residues retained potent ABCA1 selective cholesterol efflux activity (FIG. 7). J774 macrophages were labeled (48 h) with [^3H]cholesterol and treated (18 h) with a cAMP analog to induce ABCA1 protein expression; cells incubated in the absence of cAMP (left bars) served as controls. […] Peptides were used at a concentration of 30 μg/ml, which was maximal for promoting cholesterol efflux activity. Panel B—Dependence of cholesterol efflux on the concentration of peptides. […] Results are expressed as the difference in cholesterol efflux (%/4 h) observed using cAMP treated vs. non-treated J774 cells. Values are means±SD, n=3."}, "ABCA1 [2]": {"molecular_target": "T1, ABCA1", "test": "ABCA1-dependent cholesterol efflux from [3H]cholesterol-labeled J774 macrophages with and without cAMP", "format": "cell-based", "conditions": "J774, cAMP vs no cAMP; 10 μg/ml lipid-free"}, "[3]": {"tested_on": "New Zealand White rabbits", "test": "High-dose IV bolus toxicity of ATI-5261 in rabbits (plasma ALT, AST, TG, cholesterol)", "format": "in vivo, rabbit", "source_text": "Peptides or peptidomeimetics of the invention can be evaluated for toxicity using known assays. Examples of such assays are illustrated in the Examples section. Toxicity is typically assayed in a rat, rabbit, mouse, monkey or dog model. […] Safety chemistry panels including plasma alanine aminotransferase (ALT), aspartate amino transferase (AST), and creatine kinase (CK) can then be determined in the blood. The presence of elevated levels of these enzymes in the blood compared to control normal values is indicative of toxicity. A peptide of the invention is typically considered to be non-toxic or to have little toxicity, when the results using the highest dose, 300 mg/kg in this illustrative assay, are equivalent (fall within the standard deviation) of the values measured for the control animals that received vehicle alone, or are no more than 2 or 3 times background obtained with vehicle alone. […]\nCytotoxicity of an HDL mimetic peptide ATI-5261 at high doses was evaluated in rats and rabbits (FIG. 1). […]\nFor the experiments in FIG. 2, male chow-fed Wistar rats (Panels A and B) were administered ATI-5261 at doses of 3, 30, and 300 mg/kg as described in FIG. 1. Plasma triglyceride (TG, Panel A) and unesterified cholesterol (Panel B) concentrations were determined enzymatically at the times indicated. […]"}, "C57Bl/6 mice [4]": {"tested_on": "C57Bl/6 mice", "format": "in vivo", "conditions": "300 mg/kg IP, male chow-fed C57Bl/6 mice", "method": "The high-dose cytotoxic response of ATI-5261 observed in rat, rabbit and cynomolgus monkey is additionally recapitulated in mice (FIG. 4). Male chow-fed C57bl/6 mice were injected intraperitonelly (IP) with 30 or 300 mg/kg of lipid-fee ATI-5261. Blood was collected via the retro-orbital plexus 4 h after peptide injection and plasma subsequently obtained for measurement of CPK (Panel A) and ALT and AST activities (Panel B, ALT left bars, AST, right bars). Values are means±SD, n=4 mice per group.\nThis example illustrates that aromatic phenylalanine residues associated with the non-polar surface of ATI-5261 contributed to the majority of the peptide toxicity (FIG. 5). […] Blood was collected via retro-orbital plexus 4 h after injection for isolation of plasma. Levels of plasma CPK (Panel A), ALT (panel B) and AST (Panel C) were determined as described in FIG. 1. Values are means±SD, n=4 mice per group.\nThe concentrations of plasma lipids in C57Bl/6 mice following administration of the aliphatic analogs of ATI-5261 was also determined. […] All values (mg/dl) are means±SD, n=4, determined at 4 and 6 h post treatment with peptide."}, "ABCG1": {"molecular_target": "T2, ABCG1 (Homo sapiens, UniProt P45844)", "T2 construct": "expressed in transfected cells; host or cells: BHK cells, stably transfected", "test": "ABCG1 mediated cholesterol efflux from BHK cells stably transfected with ABCG1", "format": "cell-based", "conditions": "BHK-ABCG1 vs mock, 50 μg peptide/ml, time-course and 4 h", "source_text": "To further evaluate potential anti-atherogenic mechanisms of CS6253, BHK cells stably transfected with ABCG1 and mock-transfected control cells were labeled with [3H]cholesterol and used in efflux experiments. […] Panel A—Time-course for ABCG1 mediated cholesterol efflux from cells to lipid-free CS6253 peptide or CS6253:POPC complexes. […] Panel B—Comparison between CS6253 and ATI-5261 in mediating cellular cholesterol efflux via ABCG1. [3H]cholesterol labeled BHK cells (ABCG1 vs. mock transfected; left bars, control BHK, right bars, G1-BHK) were incubated with either lipid-free peptide or peptides formulated with POPC."}, "C57Bl/6 mice [5]": {"tested_on": "C57Bl/6 mice", "conditions": "mouse, in vivo, ip, 300 mg/kg"}}, "note": "Entries after “also recorded” stand apart in the source; their conditions may differ."}
{"substance": "ATI-5261: HDL mimetic peptide, parent peptide with phenylalanine and arginine residues; toxic at high doses; used as positive control (EVRSKLEEWFAAFREFAEEFLARLKS)", "values": [{"measurement": "peptide concentration at saturation of cholesterol efflux", "setting": "ABCA1 [1]", "value": "roughly 3 μg/ml"}, {"measurement": "ABCA1-dependent cholesterol efflux activity", "setting": "ABCA1 [2]", "value": "stimulated an overall greater efflux response; also recorded: stimulated a greater efflux response"}, {"measurement": "plasma triglycerides and unesterified cholesterol", "setting": "[3]; single IV bolus", "value": "increased plasma triglycerides and cholesterol"}, {"measurement": "cytotoxic response (plasma ALT, AST)", "setting": "[3]; single IV bolus 3, 30 or 300 mg/kg", "value": "induced a cytotoxic response"}, {"measurement": "TG elevating effect (plasma TG, cholesterol)", "setting": "C57Bl/6 mice [4]; 4 and 6 h", "value": "marked increase in plasma TG, total and unesterified (free) cholesterol (FC)"}, {"measurement": "cytotoxic/toxic response (plasma CPK, ALT, AST)", "setting": "C57Bl/6 mice [4]; 4 h", "value": "High levels of cytotoxic markers"}, {"measurement": "cholesterol efflux via ABCG1", "setting": "ABCG1", "value": "poorly active"}, {"measurement": "triglyceride (TG)", "setting": "C57Bl/6 mice [5]", "value": "triglyceride (TG) elevation effects"}]}
